Biological target: T1, human CD19 (human, UniProt P15391 20-556)
T1 construct: whole, on cells; also called hCD19
T1 sequence (looked up): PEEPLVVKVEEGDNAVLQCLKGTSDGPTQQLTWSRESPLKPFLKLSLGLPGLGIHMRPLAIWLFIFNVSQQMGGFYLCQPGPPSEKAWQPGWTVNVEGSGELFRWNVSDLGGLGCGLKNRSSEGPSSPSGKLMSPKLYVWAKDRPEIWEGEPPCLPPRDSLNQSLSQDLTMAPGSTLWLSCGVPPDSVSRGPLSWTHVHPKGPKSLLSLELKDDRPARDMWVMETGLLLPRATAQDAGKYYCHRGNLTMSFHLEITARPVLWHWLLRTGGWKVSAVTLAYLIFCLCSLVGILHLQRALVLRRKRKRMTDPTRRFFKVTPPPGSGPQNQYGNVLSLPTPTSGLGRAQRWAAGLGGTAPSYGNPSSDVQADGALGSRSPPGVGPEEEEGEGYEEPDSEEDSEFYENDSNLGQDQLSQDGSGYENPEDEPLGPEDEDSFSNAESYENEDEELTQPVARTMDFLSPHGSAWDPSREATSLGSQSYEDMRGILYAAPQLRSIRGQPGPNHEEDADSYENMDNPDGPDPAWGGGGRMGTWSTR
Assay: flow cytometry on hCD19 cDNA-transfected 300.19 cells, antibody at 5 ug/mL, anti-mouse Ig PE secondary

binding result: binds
B1: FMC63 anti-CD19 antibody (antibody, IgG2a, V domains shown)
VH: EVKLQESGPGLVAPSQSLSVTCTVSGVSLPDYGVSWIRQPPRKGLEWLGVIWGSEDTTYYNSALKSRLTIIKDNSKSQVFLKMNSLQTDDTAIYYCAKHYYYGGSYAMDYWGQGTSVTVSS
VL: DIQMTQTTSSLSASLGDRVTISCRASQDISKYLNWYQQKPDGTVKLLIYHTSRLHSGVPSRFSGSGSGTDYSLTISNLEQEDIATYFCQQGNTLPYTFGGGTKLEIT
notes: Mouse monoclonal IgG2a, bought from Chemicon International

Source: patent publication CN101218351A (UNIV DUKE, dated 2008)
